In article PMC8915838 one finds Ki and Kd data, which are given here for one substance.

Experiment [1] addresses plasmin. The experiment can be described thus: enzyme inhibition.
Experiment [2] addresses trypsin. The experiment can be described thus: enzyme inhibition.
Experiment [3] has as its target leukotriene A4 hydrolase (LTA4H) (UniProt P09960). Description: enzyme inhibition.
Experiment [4] has the same target. The experiment can be described thus: SPR. A general note: SPR reads the build-up and loss of mass on a sensor chip optically.

A word on the Ki: it is a dissociation constant, usually derived from enzyme kinetics or from competition with a known ligand. Usually Kd stands for a measure of binding affinity in units of concentration. On to “MTX, immunosuppressant protein from the submandibular salivary glands of the bat Myotis pilosus (natural protein)”, for which the Ki amounted to 80 nM in experiment [1], 67.5 nM in experiment [2] and 1230 nM in experiment [3]. In experiment [4], the Kd was 0.45 nM.
